Source: patent publication US20140087995A1 (published 2014)
Numbered stars: 1 amine (or outer) side, 2 acyl side, 3 side chain; on linkers, the order of the positions; unused ones are H or OH. Bridge positions count the residues as written; N and C are the ends. Side chains are listed from the residue outwards. Ends that are not written are not given here. * marks the point of attachment. C20 diacid = O=C(O)CCCCCCCCCCCCCCCCCCC(=O)*; γGlu = O=C(O)[C@H](CCC(=O)[*:2])N[*:1]; AEEA = NCCOCCOCC(=O)O

T1: human calcitonin receptor (human, UniProt P30988 25-474)
T1 construct: whole, on cells; also called hCTR; hCT
T1 sequence (looked up): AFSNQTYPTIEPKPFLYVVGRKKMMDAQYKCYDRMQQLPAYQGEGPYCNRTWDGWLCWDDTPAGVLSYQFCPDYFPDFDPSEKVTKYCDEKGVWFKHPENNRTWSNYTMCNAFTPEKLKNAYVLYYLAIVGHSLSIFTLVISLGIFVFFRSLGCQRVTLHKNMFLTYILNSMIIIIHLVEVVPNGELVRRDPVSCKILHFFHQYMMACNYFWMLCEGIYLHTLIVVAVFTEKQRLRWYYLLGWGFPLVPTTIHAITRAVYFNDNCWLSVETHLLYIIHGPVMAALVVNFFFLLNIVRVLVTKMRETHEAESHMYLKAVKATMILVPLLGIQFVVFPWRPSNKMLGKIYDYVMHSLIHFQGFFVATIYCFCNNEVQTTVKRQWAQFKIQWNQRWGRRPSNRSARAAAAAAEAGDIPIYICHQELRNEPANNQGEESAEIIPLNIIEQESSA


What follows are binders tested against T1, human calcitonin receptor (assay: SPA competition with 125I-calcitonin, membranes of BHK hCTR cells (Assay VII)).
Outline: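 BHK hCTR membranes 35 ng/μL + SPA beads 0.05 mg/well; buffer 50 mM Hepes pH 7.4, 1 mM CaCl2, 5 mM MgCl₂, 0.1% OA, 0.02% Tween20. 120 min, 25° C., shaking. Scintillation count; IC50 by one-site binding competition.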

Binder	IC50 [nM]
K([AEEA-γGlu-C20 diacid])CNTATCATQRLAHFLRHSSPNFGAIPSSTNVGSNTY-NH2 (disulfide 2-7; N-terminus assumed; SMILES CC[C@H](C)[C@H](NC(=O)[C@H](C)NC(=O)CNC(=O)[C@H](Cc1ccccc1)NC(=O)[C@H](CC(N)=O)NC(=O)[C@@H]1CCCN1C(=O)[C@H](CO)NC(=O)[C@H](CO)NC(=O)[C@H](Cc1c[nH]cn1)NC(=O)[C@H](CCCNC(=N)N)NC(=O)[C@H](CC(C)C)NC(=O)[C@H](Cc1ccccc1)NC(=O)[C@H](Cc1c[nH]cn1)NC(=O)[C@H](C)NC(=O)[C@H](CC(C)C)NC(=O)[C@H](CCCNC(=N)N)NC(=O)[C@H](CCC(N)=O)NC(=O)[C@@H](NC(=O)[C@H](C)NC(=O)[C@@H]1CSSC[C@H](NC(=O)[C@@H](N)CCCCNC(=O)COCCOCCNC(=O)CC[C@H](NC(=O)CCCCCCCCCCCCCCCCCCC(=O)O)C(=O)O)C(=O)N[C@@H](CC(N)=O)C(=O)N[C@@H]([C@@H](C)O)C(=O)N[C@@H](C)C(=O)N[C@@H]([C@@H](C)O)C(=O)N1)[C@@H](C)O)C(=O)N1CCC[C@H]1C(=O)N[C@@H](CO)C(=O)N[C@@H](CO)C(=O)N[C@H](C(=O)N[C@@H](CC(N)=O)C(=O)N[C@H](C(=O)NCC(=O)N[C@@H](CO)C(=O)N[C@@H](CC(N)=O)C(=O)N[C@H](C(=O)N[C@@H](Cc1ccc(O)cc1)C(N)=O)[C@@H](C)O)C(C)C)[C@@H](C)O, also called compound 69)	8.68
K([AEEA-γGlu-C20 diacid])CNTATCATQRLASFLRHSSPNFGAIPSSTPVGSNTY-NH2 (disulfide 2-7; N-terminus assumed; SMILES CC[C@H](C)[C@H](NC(=O)[C@H](C)NC(=O)CNC(=O)[C@H](Cc1ccccc1)NC(=O)[C@H](CC(N)=O)NC(=O)[C@@H]1CCCN1C(=O)[C@H](CO)NC(=O)[C@H](CO)NC(=O)[C@H](Cc1c[nH]cn1)NC(=O)[C@H](CCCNC(=N)N)NC(=O)[C@H](CC(C)C)NC(=O)[C@H](Cc1ccccc1)NC(=O)[C@H](CO)NC(=O)[C@H](C)NC(=O)[C@H](CC(C)C)NC(=O)[C@H](CCCNC(=N)N)NC(=O)[C@H](CCC(N)=O)NC(=O)[C@@H](NC(=O)[C@H](C)NC(=O)[C@@H]1CSSC[C@H](NC(=O)[C@@H](N)CCCCNC(=O)COCCOCCNC(=O)CC[C@H](NC(=O)CCCCCCCCCCCCCCCCCCC(=O)O)C(=O)O)C(=O)N[C@@H](CC(N)=O)C(=O)N[C@@H]([C@@H](C)O)C(=O)N[C@@H](C)C(=O)N[C@@H]([C@@H](C)O)C(=O)N1)[C@@H](C)O)C(=O)N1CCC[C@H]1C(=O)N[C@@H](CO)C(=O)N[C@@H](CO)C(=O)N[C@H](C(=O)N1CCC[C@H]1C(=O)N[C@H](C(=O)NCC(=O)N[C@@H](CO)C(=O)N[C@@H](CC(N)=O)C(=O)N[C@H](C(=O)N[C@@H](Cc1ccc(O)cc1)C(N)=O)[C@@H](C)O)C(C)C)[C@@H](C)O, also called compound 73)	5.38
K([γGlu-C20 diacid])CNTATCATQRLARFLRHSSPNFGAIPSSTNVGPNTY-NH2 (disulfide 2-7; N-terminus assumed; SMILES CC[C@H](C)[C@H](NC(=O)[C@H](C)NC(=O)CNC(=O)[C@H](Cc1ccccc1)NC(=O)[C@H](CC(N)=O)NC(=O)[C@@H]1CCCN1C(=O)[C@H](CO)NC(=O)[C@H](CO)NC(=O)[C@H](Cc1c[nH]cn1)NC(=O)[C@H](CCCNC(=N)N)NC(=O)[C@H](CC(C)C)NC(=O)[C@H](Cc1ccccc1)NC(=O)[C@H](CCCNC(=N)N)NC(=O)[C@H](C)NC(=O)[C@H](CC(C)C)NC(=O)[C@H](CCCNC(=N)N)NC(=O)[C@H](CCC(N)=O)NC(=O)[C@@H](NC(=O)[C@H](C)NC(=O)[C@@H]1CSSC[C@H](NC(=O)[C@@H](N)CCCCNC(=O)CC[C@H](NC(=O)CCCCCCCCCCCCCCCCCCC(=O)O)C(=O)O)C(=O)N[C@@H](CC(N)=O)C(=O)N[C@@H]([C@@H](C)O)C(=O)N[C@@H](C)C(=O)N[C@@H]([C@@H](C)O)C(=O)N1)[C@@H](C)O)C(=O)N1CCC[C@H]1C(=O)N[C@@H](CO)C(=O)N[C@@H](CO)C(=O)N[C@H](C(=O)N[C@@H](CC(N)=O)C(=O)N[C@H](C(=O)NCC(=O)N1CCC[C@H]1C(=O)N[C@@H](CC(N)=O)C(=O)N[C@H](C(=O)N[C@@H](Cc1ccc(O)cc1)C(N)=O)[C@@H](C)O)C(C)C)[C@@H](C)O, also called compound 65)	53.5
K([AEEA-γGlu-C20 diacid])CNTATCATQRLAKFLRHSSPNFGAIPSSTPVGSNTY-NH2 (disulfide 2-7; N-terminus assumed; SMILES CC[C@H](C)[C@H](NC(=O)[C@H](C)NC(=O)CNC(=O)[C@H](Cc1ccccc1)NC(=O)[C@H](CC(N)=O)NC(=O)[C@@H]1CCCN1C(=O)[C@H](CO)NC(=O)[C@H](CO)NC(=O)[C@H](Cc1c[nH]cn1)NC(=O)[C@H](CCCNC(=N)N)NC(=O)[C@H](CC(C)C)NC(=O)[C@H](Cc1ccccc1)NC(=O)[C@H](CCCCN)NC(=O)[C@H](C)NC(=O)[C@H](CC(C)C)NC(=O)[C@H](CCCNC(=N)N)NC(=O)[C@H](CCC(N)=O)NC(=O)[C@@H](NC(=O)[C@H](C)NC(=O)[C@@H]1CSSC[C@H](NC(=O)[C@@H](N)CCCCNC(=O)COCCOCCNC(=O)CC[C@H](NC(=O)CCCCCCCCCCCCCCCCCCC(=O)O)C(=O)O)C(=O)N[C@@H](CC(N)=O)C(=O)N[C@@H]([C@@H](C)O)C(=O)N[C@@H](C)C(=O)N[C@@H]([C@@H](C)O)C(=O)N1)[C@@H](C)O)C(=O)N1CCC[C@H]1C(=O)N[C@@H](CO)C(=O)N[C@@H](CO)C(=O)N[C@H](C(=O)N1CCC[C@H]1C(=O)N[C@H](C(=O)NCC(=O)N[C@@H](CO)C(=O)N[C@@H](CC(N)=O)C(=O)N[C@H](C(=O)N[C@@H](Cc1ccc(O)cc1)C(N)=O)[C@@H](C)O)C(C)C)[C@@H](C)O, also called compound 74)	79.9
K([γGlu-C20 diacid])CNTATCATQRLANFLRHSSPNFGAIPSSTNVGSETY-NH2 (disulfide 2-7; N-terminus assumed; SMILES CC[C@H](C)[C@H](NC(=O)[C@H](C)NC(=O)CNC(=O)[C@H](Cc1ccccc1)NC(=O)[C@H](CC(N)=O)NC(=O)[C@@H]1CCCN1C(=O)[C@H](CO)NC(=O)[C@H](CO)NC(=O)[C@H](Cc1c[nH]cn1)NC(=O)[C@H](CCCNC(=N)N)NC(=O)[C@H](CC(C)C)NC(=O)[C@H](Cc1ccccc1)NC(=O)[C@H](CC(N)=O)NC(=O)[C@H](C)NC(=O)[C@H](CC(C)C)NC(=O)[C@H](CCCNC(=N)N)NC(=O)[C@H](CCC(N)=O)NC(=O)[C@@H](NC(=O)[C@H](C)NC(=O)[C@@H]1CSSC[C@H](NC(=O)[C@@H](N)CCCCNC(=O)CC[C@H](NC(=O)CCCCCCCCCCCCCCCCCCC(=O)O)C(=O)O)C(=O)N[C@@H](CC(N)=O)C(=O)N[C@@H]([C@@H](C)O)C(=O)N[C@@H](C)C(=O)N[C@@H]([C@@H](C)O)C(=O)N1)[C@@H](C)O)C(=O)N1CCC[C@H]1C(=O)N[C@@H](CO)C(=O)N[C@@H](CO)C(=O)N[C@H](C(=O)N[C@@H](CC(N)=O)C(=O)N[C@H](C(=O)NCC(=O)N[C@@H](CO)C(=O)N[C@@H](CCC(=O)O)C(=O)N[C@H](C(=O)N[C@@H](Cc1ccc(O)cc1)C(N)=O)[C@@H](C)O)C(C)C)[C@@H](C)O, also called compound 27) [N^ε1-[(4S)-4-carboxy-4-(19-carboxynonadecanoylamino)butanoyl]-[Arg17,Pro21,Pro27,Glu35]-h-amylin]	34.5
K([γGlu-C20 diacid])CNTATCATQRLARFLRHSSPNFGAIPSSTPVGSNTY-NH2 (disulfide 2-7; N-terminus assumed; SMILES CC[C@H](C)[C@H](NC(=O)[C@H](C)NC(=O)CNC(=O)[C@H](Cc1ccccc1)NC(=O)[C@H](CC(N)=O)NC(=O)[C@@H]1CCCN1C(=O)[C@H](CO)NC(=O)[C@H](CO)NC(=O)[C@H](Cc1c[nH]cn1)NC(=O)[C@H](CCCNC(=N)N)NC(=O)[C@H](CC(C)C)NC(=O)[C@H](Cc1ccccc1)NC(=O)[C@H](CCCNC(=N)N)NC(=O)[C@H](C)NC(=O)[C@H](CC(C)C)NC(=O)[C@H](CCCNC(=N)N)NC(=O)[C@H](CCC(N)=O)NC(=O)[C@@H](NC(=O)[C@H](C)NC(=O)[C@@H]1CSSC[C@H](NC(=O)[C@@H](N)CCCCNC(=O)CC[C@H](NC(=O)CCCCCCCCCCCCCCCCCCC(=O)O)C(=O)O)C(=O)N[C@@H](CC(N)=O)C(=O)N[C@@H]([C@@H](C)O)C(=O)N[C@@H](C)C(=O)N[C@@H]([C@@H](C)O)C(=O)N1)[C@@H](C)O)C(=O)N1CCC[C@H]1C(=O)N[C@@H](CO)C(=O)N[C@@H](CO)C(=O)N[C@H](C(=O)N1CCC[C@H]1C(=O)N[C@H](C(=O)NCC(=O)N[C@@H](CO)C(=O)N[C@@H](CC(N)=O)C(=O)N[C@H](C(=O)N[C@@H](Cc1ccc(O)cc1)C(N)=O)[C@@H](C)O)C(C)C)[C@@H](C)O, also called compound 63)	130
